In the Human Domainome abundance scans (Beltran et al. 2025):
± gives the uncertainty stated by the source.

B1: Membrane-associated guanylate kinase, WW and PDZ domain-containing protein 2, residues 296 to 340; numbered along this chain, Q86UL8 (parent)
chain: EDNEEPDPLPDNWEMAYTEKGEVYFIDHNTKTTSWLDPRLAKKAK

Variants of: B1
Assay: abundance fitness (aPCA) (normalised: wild type 0, dead -1); higher = more abundant; growth selection in yeast, the domain comes from the species named
Details: Homo sapiens
With T33K the abundance fitness was -0.492 ± 0.047. With T33L the abundance fitness was -0.635 ± 0.075. T33M gave an abundance fitness of -0.488 ± 0.08. Work on T33N yielded an abundance fitness of -0.341 ± 0.077. T33P showed an abundance fitness of -0.841 ± 0.074. For T33Q, the abundance fitness was -0.637 ± 0.068. With T33S the abundance fitness was -0.236 ± 0.045. Variant T33V has an abundance fitness of -0.272 ± 0.046. T33W showed an abundance fitness of -0.763 ± 0.056. S34A showed an abundance fitness of -0.43 ± 0.064. S34C showed an abundance fitness of -0.181 ± 0.1. For S34E, the abundance fitness was -0.826 ± 0.12. S34G gave an abundance fitness of -0.463 ± 0.076. Work on S34L yielded an abundance fitness of -1.14 ± 0.15. For S34R, the abundance fitness was -0.629 ± 0.073. S34V gave an abundance fitness of -0.758 ± 0.12. Variant S34W has an abundance fitness of -0.784 ± 0.26. W35A gave an abundance fitness of -0.489 ± 0.042. With W35C the abundance fitness was -0.527 ± 0.072. W35D showed an abundance fitness of -0.547 ± 0.1. W35F showed an abundance fitness of -0.083 ± 0.1. W35G gave an abundance fitness of -0.523 ± 0.039. For W35I, the abundance fitness was -0.492 ± 0.055. Variant W35K has an abundance fitness of -0.494 ± 0.078. Work on W35M yielded an abundance fitness of -0.247 ± 0.054. W35P showed an abundance fitness of -0.668 ± 0.089. For W35Q, the abundance fitness was -0.365 ± 0.065. In the case of W35R, the abundance fitness is reported as -0.362 ± 0.043. For W35S, the abundance fitness was -0.436 ± 0.054. In the case of W35T, the abundance fitness is reported as -0.451 ± 0.089. With W35V the abundance fitness was -0.473 ± 0.063. W35Y gave an abundance fitness of -0.036 ± 0.068. L36A gave an abundance fitness of -0.117 ± 0.067. With L36C the abundance fitness was 0.153 ± 0.12. With L36D the abundance fitness was -0.227 ± 0.12. In the case of L36E, the abundance fitness is reported as -0.111 ± 0.079. L36F showed an abundance fitness of -0.184 ± 0.11. L36G gave an abundance fitness of -0.198 ± 0.057. With L36H the abundance fitness was -0.298 ± 0.17. L36I gave an abundance fitness of 0.086 ± 0.14. For L36K, the abundance fitness was -0.012 ± 0.054. In the case of L36M, the abundance fitness is reported as -0.053 ± 0.078. For L36N, the abundance fitness was -0.186 ± 0.09. For L36P, the abundance fitness was -0.776 ± 0.099. Variant L36R has an abundance fitness of -0.051 ± 0.044. In the case of L36S, the abundance fitness is reported as -0.125 ± 0.045. In the case of L36T, the abundance fitness is reported as -0.127 ± 0.061. Work on L36V yielded an abundance fitness of 0.025 ± 0.042. In the case of L36W, the abundance fitness is reported as -0.078 ± 0.087. D37A gave an abundance fitness of -0.431 ± 0.042. For D37E, the abundance fitness was -0.569 ± 0.073. With D37F the abundance fitness was -0.846 ± 0.14. D37G gave an abundance fitness of -0.51 ± 0.047. In the case of D37H, the abundance fitness is reported as -0.623 ± 0.2. Work on D37I yielded an abundance fitness of -0.832 ± 0.075. D37K gave an abundance fitness of -0.246 ± 0.065. Variant D37L has an abundance fitness of -0.699 ± 0.042. D37M showed an abundance fitness of -0.533 ± 0.071. D37N gave an abundance fitness of -0.184 ± 0.4. In the case of D37P, the abundance fitness is reported as -0.456 ± 0.064. D37Q showed an abundance fitness of -0.607 ± 0.087. Variant D37R has an abundance fitness of -0.152 ± 0.039. D37S showed an abundance fitness of -0.456 ± 0.041. For D37T, the abundance fitness was -0.675 ± 0.055. In the case of D37V, the abundance fitness is reported as -0.595 ± 0.048. With D37W the abundance fitness was -0.671 ± 0.045. D37Y gave an abundance fitness of -0.697 ± 0.13. In the case of P38V, the abundance fitness is reported as -0.979 ± 0.26. For R39A, the abundance fitness was -0.514 ± 0.049. For R39C, the abundance fitness was -0.478 ± 0.08. R39G showed an abundance fitness of -0.46 ± 0.06. Variant R39H has an abundance fitness of -0.419 ± 0.13. In the case of R39K, the abundance fitness is reported as -0.411 ± 0.058. R39L showed an abundance fitness of -0.63 ± 0.046. Work on R39M yielded an abundance fitness of -0.599 ± 0.056. R39N gave an abundance fitness of -0.289 ± 0.15. Work on R39P yielded an abundance fitness of -0.633 ± 0.069. In the case of R39Q, the abundance fitness is reported as -0.497 ± 0.054. Work on R39S yielded an abundance fitness of -0.395 ± 0.044. R39T gave an abundance fitness of -0.366 ± 0.1. Variant R39V has an abundance fitness of -0.52 ± 0.045. With R39W the abundance fitness was -0.607 ± 0.059. R39Y showed an abundance fitness of -0.769 ± 0.15. For L40A, the abundance fitness was 0.059 ± 0.068. For L40E, the abundance fitness was 0.034 ± 0.088. Variant L40G has an abundance fitness of 0.076 ± 0.052. With L40K the abundance fitness was 0.091 ± 0.077. In the case of L40N, the abundance fitness is reported as 0.117 ± 0.1. In the case of L40P, the abundance fitness is reported as 0.043 ± 0.056. In the case of L40Q, the abundance fitness is reported as 0.024 ± 0.083. L40R gave an abundance fitness of -0.002 ± 0.053. L40S gave an abundance fitness of -0.022 ± 0.057. In the case of L40T, the abundance fitness is reported as 0.012 ± 0.11. L40V gave an abundance fitness of 0.043 ± 0.045. In the case of L40W, the abundance fitness is reported as -0.133 ± 0.059. A41F gave an abundance fitness of -0.113 ± 0.085. With A41G the abundance fitness was 0.138 ± 0.12. Work on A41L yielded an abundance fitness of -0.297 ± 0.29. Work on A41R yielded an abundance fitness of -0.058 ± 0.077. For K42A, the abundance fitness was 0.085 ± 0.051. For K42C, the abundance fitness was 0.097 ± 0.077. Work on K42D yielded an abundance fitness of -0.05 ± 0.18. In the case of K42E, the abundance fitness is reported as 0.035 ± 0.062. In the case of K42G, the abundance fitness is reported as 0.014 ± 0.046. Variant K42L has an abundance fitness of 0.046 ± 0.22.
